The text below walks through data of the DeepSol protein solubility set.

The nature of the data set: soluble on expression in E. coli; label from the status in PepcDB or PDB records.
As to “ASIFGVFDIKTDAVELRKKALELSRLMRHRGPDWSGIYASDNAILAHERLSIVDVNAGAQPLYNQQKTHVLAVNGEIYNHQALRAEYGDRYQFQTGSDCEVILALYQEKGPEFLDDLQGMFAFALYDSEKDAYLIGRDHLGIIPLYMGYDEHGQLYVASEMKALVPVCRTIKEFPAGSYLWSQDGEIRSYYHRDWFDYDAVKDNVTDKNELRQALEDSVKSHLMSDVPYGVLLSGGLDSSIISAITKKYAARRVEDQERSEAWWPQLHSFAVGLPGSPDLKAAQEVANHLGTVHHEIHFTVQEGLDAIRDVIYHIETYDVTTIRASTPMYLMSRKIKAMGIKMVLSGEGSDEVFGGYLYFHKAPNAKELHEETVRKLLALHMYDCARANKAMSAWGVEARVPFLDKKFLDVAMRINPQDKMCGNGKMEKHILRECFEAYLPASVAWRQKEQFSDGVGYSWIDTLKEVAAQQVSDQQLETARFRFPYNTPTSKEAYLYREIFEELFPLPSAAECVPGGPSVACSSAKAIEWDEAFKKMDDPSGRAVGVHQSAYK”, the “soluble on expression in E. coli” value is on record as “soluble”. With “MNLEGLEMIAVLIVIVLFVKLLEQFGLIEAGLEDSVEDELEMATVRHRPEALELLEAQSKFTKKELQILYRGFKNECPSGVVNEETFKEIYSQFFPQGDSTTYAHFLFNAFDTDHNGAVSFEDFIKGLSILLRGTVQEKLNWAFNLYDINKDGYITKEEMLDIMKAIYDMMGKCTYPVLKEDAPRQHVETFFQKMDKNKDGVVTIDEFIESCQKDENIMRSMQLFENVI”, the “soluble on expression in E. coli” value is listed as “soluble”.

“SMGGPQYGIAREDVVLNRILGEGFFGEVYEGVYTNHKGEKINVAVKTCKKDCTLDNKEKFMSEAVIMKNLDHPHIVKLIGIIEEEPTWIIMELYPYGELGHYLERNKNSLKVLTLVLYSLQICKAMAYLESINCVHRDIAVRNILVASPECVKLGDFGLSRYIEDEDYYKASVTRLPIKWMSPESINFRRFTTASDVWMFAVCMWEILSFGKQPFFWLENKDVIGVLEKGDRLPKPDLCPPVLYTLMTRCWDYDPSDRPRFTELVCSLSDVYQMEKDIAME”: the “soluble on expression in E. coli” value is listed as “soluble”. On to “MAEATDVVLVGGGIMSATLGVLLKELEPSWEITLIERLEDVALESSNAWNNAGTGHSALCELNYAPLGANGIIDPARALNIAEQFHVSRQFWATLVAEGKLEDNSFINAVPHMSLVMNEDHCSYLQKRYDAFKTQKLFENMEFSTDRNKISDWAPLMMRGRDENQPVAANYSAEGTDVDFGRLTRQMVKYLQGKGVKTEFNRHVEDIKRESDGAWVLKTADTRNPDGQLTLRTRFLFLGAGGGALTLLQKSGIPEGKGYGGFPVSGLFFRNSNPETAEQHNAKVYGQASVGAPPMSVPHLDTRNVDGKRHLMFGPYAGFRSNFLKQGSLMDLPLSIHMDNLYPMLCAGWANMPLTKYLLGELRKTKEERFASLLEYYPEANPDDWELITAGQRVQIIKKDSEKGGVLQFGTEIVAHADGSLAALLGASPGASTAVPLMIRLMHQCFPERAPSWEDRLKELVPGYGIKLNENPERADEIIAYTAKVLDI”, for which the “soluble on expression in E. coli” value is “not soluble”.

In the case of “MSSGKVIVYGGKGALGSAILEFFKKNGYTVLNIDLSANDQADSNILVDGNKNWTEQEQSILEQTASSLQGSQVDGVFCVAGGWAGGSASSKDFVKNADLMIKQSVWSSAIAAKLATTHLKPGGLLQLTGAAAAMGPTPSMIGYGMAKAAVHHLTSSLAAKDSGLPDNSAVLTIMPVTLDTPMNRKWMPNADHSSWTPLSFISEHLLKWTTETSSRPSSGALLKITTENGTSTITPQ”, the “soluble on expression in E. coli” value is on record as “soluble”. Turning to “MPLSPYLSFAGNCSDAIAYYQRTLGAELLYKISFGEMPKSAQDSAENCPSGMQFPDTAIAHANVRIAGSDIMMSDAIPSGKASYSGFTLVLDSQQVEEGKRWFDNLAANGKIEMAWQETFWAHGFGKVTDKFGVPWMINVVKQQPTQ”, the “soluble on expression in E. coli” value was “not soluble”. As to “MKNMLPAYIKIHDQIKKDIDEYRWAIGERLPSERDLAEQFAVSRMTLRQAVSLLVEEGVLERRVGSGTFVSSTRVQEKMRGTTSFTEIVKSQGKVPSSQLISYKKTIPNEQEVAKLGIFPTDNIIRMERVRYADQVPLVYEVASIPEKFIKDFKKEEITSHFFQTLQKHGYRIGKSQQTIYARLAKEKIAHYLEVEKGHAILGLTQVSYLEDGTAFEYVKSQYVGERFEFYLENN”, the “soluble on expression in E. coli” value is given as “not soluble”.

In the case of “ARKRAAGGEPRGRELRSQKSKAKSKARREEEEEDAFEDEKPPKKSLLSKVSQGKRKRGCSHPGGSADGPAKKKVAKVTVKSENLKVIKDEALSDGDDLRDFPSDLKKAHHLKRGATMNEDSNEEEEESENDWEEVEELSEPVLGDVRESTAFSRSLLPVKPVEIEIETPEQAKTRERSEKIKLEFETYLRRAMKRFNKGVHEDTHKVHLLCLLANGFYRNNICSQPDLHAIGLSIIPARFTRVLPRDVDTYYLSNLVKWFIGTFTVNAELSASEQDNLQTTLERRFAIYSARDDEELVHIFLLILRALQLLTRLVLSLQPIPLKSATAKGKKPSKERLTADPGGSSETSSQVLENHTKPKTSKGTKQEETFAKGTCRPSAKGKRNKGGRKKRSKPSSSEEDEGPGDKQEKATQRRPHGRERRVASRVSYKEESGSDEAGSGSDFELSSGEASDPSDEDSEPGPPKQRKAPAPQRTKAGSKSASRTHRGSHRKDPSLPVASSSSSSSKRGKKMCSDGEKAEKRSIAGIDQWLEVFCEQEEKWVCVDCVHGVVGQPLTCYKYATKPMTYVVGIDSDGWVRDVTQRYDPVWMTVTRKCRVDAEWWAETLRPYQSPFMDREKKEDLEFQAKHMDQPLPTAIGLYKNHPLYALKRHLLKYEAIYPETAAILGYCRGEAVYSRDCVHTLHSRDTWLKKARVVRLGEVPYKMVKGFSNRARKARLAEPQLREENDLGLFGYWQTEEYQPPVAVDGKVPRNEFGNVYLFLPSMMPIGCVQLNLPNLHRVARKLDIDCVQAITGFDFHGGYSHPVTDGYIVCEEFKDVLLTAWENEQAVIERKEKEKKEKRALGNWKLLAKGLLIRERLKRRYGPKSEAAAPHTDAGGGLSSDEEEGTSSQAEAARILAASWPQNREDEEKQKLKGGPKKTKREKKAAASHLFPFEKL”, the “soluble on expression in E. coli” value is “not soluble”. For “MSGKISEEAMQEQAERAEYVKNIGIEYRFGCYEEKRPESCQLLGEYMEALQQNFQAAVAIFKKNCDENSYPKSCFKYGMYMLAGKVGDDASLSKMIRPMKIACDANIPQGCRYLSLVHWNGEKDRKADSEKAERYMRRACELEDGEACWLLSTWYMGNKEKFKTNAAGEAKELDRAELGSLSRDMDKSLQFAIRACEMDIPQSCANVSRMFKLGDGVPKDLDQAKKYADRAKEIMETLRSNDTNAGFTG” the value was “not soluble”; for “MIKLFTDSDLDGIGCGLLAKLAFAEVNISFCSYRNLDERVVQFLQSDEANGAMLFITDLAVGKEVEQQLAERAARGGHVQVIDHHVTALHFNDYPWGQVVPVRDDGKKTCATSLFYDYLVREGKLAPNETLDGFVELVRQYDTWEWEENGNLQAKRLNDLLTIFGLDGFWETMSERLASREPFSLTETEELLLDMEEKKIQRYIRQKQKQLVQRWLGDYCIGVVFAERHLSELGNALSKRYPHLDLIALVNMGTKHIGFRTIHDDVNVAEFAQQFGGGGHPKASGCLIDDTTFPLFVVETFPLLPVYGDAEQNQLNKKDEAEGVFWTNHHGQWWLSRKTAQGWSVYADGGETHTFPEEIAGERWLKRQFAAGLAHDAAVLDFLSVRLGRDKDAIQADYKAAVKQYKQQTGIES”, “not soluble”; for “MKNIVSAFGIIPRNNRLMYIHSYQSYVWNTMVSRRIEEYGLRPVPGDLVLKGATPTYIEEDDVDNYSIHDVVMPLPGFDVIYPKHKISEAYREMLAADNLDIDNMRHTIRDYSLSGAYRRIIIRPQSVSWEVVAYDDPKIPLFNTDVDNLEGKPPPVFASEGKYRALKMDFSLPPSTYATMAIREVLKMDTSIKNQTQLNTSWLR”, “not soluble”. With “MNQAFKALADPTRRKILDLLKEGDLTAGEIAEHFNMTKPSISHHLNALKNAELIQDEKKGQFVMYSLNTTVFQDLLTWVFTFTNKGEEGK”, the “soluble on expression in E. coli” value is “not soluble”. For “MSGYACNQPQLYSQCNCPSFCSGYMQQQPQYYQSPCGYSSGCSGGSGGGYYPRRRHHKHKKPRRKFRFDSDEDEDLPPPPPRKSAKISRVHSEEQGFIEEKPRVTETTKTDSSWENEDLWEKKFVTESTHTKAEEKLDSEEFPEITSEEIEAAMRRKTTLPPRVVQPQPVAPAGGGLGGLGLGNGGLFGISSGVGVGVPGVGPIGVSSGLGIGK” the value was “not soluble”. For “MFNLKREHFRDDYLYRFYQYGDTHSKIPSNLYKVLARKLDMISASENINDLRSPPANHLELLEPKENKIYSIRVNKQYCLIFKYENNEVNNLYLDPHSYNL” the value was “not soluble”; for “MATRPKTIWESFLSPVVRFLMDEDKWRRYAQSIDWEKESDRFRRTDVIIPSYYTSQNFHGIEGGYLNSSAAVTYDPITEYVLPPNETLVRQALIDGVKVQPRRILDLGCGTGSTTLMLKQAFPQADVIGLDLSPYMLVRAEDKARTADLDISWRHGNAEKTSFPNASFDLVTTSLLFHETPVEVSQTILQECFRLLVAGGQVIILDGNQKSLRQLNWLNDIFEEPYIREYAADNLDARMGAAGFVGVQTEDLWLIHQVTSGIKPILATDTNQIKDRQYMPAIDNNNLEGLESPAFGIVALEHHHHHH”, “not soluble”; for “MGKIFCIVQARMGSERLQGKVIKPILKKPMVIYTLDRLKKSKYIDKIVLATSSMERETPLVESCEEYGYDVFKGSEANVLKRYEQAAEKYGANIEDAVIRVTGDCPLIDPIIVDNVVTKFLSSDYDYVRLDVPNTFVRGFDVEIFSMKALKTVNSLINGGKIPKEEADMYKEHVTLYMYKHPNEFKVGYVKGDEFYSKDYRLCVDTKEDFELVKNIYEHFNDEFVSSKNVINYLDRNSEIAQINNDIKQKEVLEHHHHHH”, “soluble”.

“MIIVYTTFPDWESAEKVVKTLLKERMIACANLREHRAFYWWEGKIEEDKEVGAILKTREDLWEELKERIKELHPYDVPAIIRIDVDDVNEDYLKWLIEETKK”: the “soluble on expression in E. coli” value is “soluble”.

“MGSDKIHHHHHHMTVRQDIHSSGIPVLCLSCAARLRGVCAALDPNHLVGLAKTSSRHKLEPGVELIADAEAVDSYSNLLSGVVKLTKCLSDGRQQIVGLRFAPDFLGRPFKVKSTINVEAATSVSLCSFPKAAVERIMKESPGLEHRLLKQTLDELDEALEWMVTLGRKTAPEKVASFLLMIARNMDSSIDPAAGSACFDLPLTRADISDFLGLTNETVSRQLTRLRADGVIRIENKRHVTVDSMSRLEQRCGGRGARQPAFE”: the “soluble on expression in E. coli” value is listed as “not soluble”. For “MQRLSGLDASFLYLETSTQLLHVCGVIVLDVSTVPGGYTFAQLKAELGARTEAIPSFRRKLQDSKFNLDHPVWVEDTDFDIDRHCHRVALPAPGGRDELAELCGDIAGIPLDRARPLWEMWVIEGLEDGSVAVMSKMHHAGVDGITGANMMAQLCGLEPDAPRPGPDDSAESAGQASTLDIAVGGLLAVASRPAKLLRIVPQSLTLLPRWIGRARRGAAMPAPFTAPRTSLNGTLTSHRNLAFTQLDLEKVKTVKDAFDVKVNDVVLALCSGALRKYLQDRRELPDKSLVAIVPVSVHGKSDRPGTNQVSGMFTQLGTQIEDPAERLLAIGEHNSTSKEHNETLGASLLQDWSQFAGQAVFGTAMRLYSTLGLAERHPVVHNLVISNVPGPSVPLYFLGALIKAMYPLGPIFHGAGLNVTVMSLNGQLDVGLMSCPELAPHLWDLVDAFPAALDELVEAAGNRS” the value was “not soluble”.

For the sequence “MDRKIREQIIAIYSNLQHKQDLTQFAHCLTTKADDNCEDFFNLGLQFQNNQLTALGFNGEGCIISTIASELTLSALEGKTIKEAIVLLEQFMEAVQTGSLSTPLPQALQLLWDFQIDQKRLNCLLLTPQNLLQWLKDFSH”, the “soluble on expression in E. coli” value is given as “soluble”. With “AEESSKAVKYYTLEEIQKHNNSKSTWLILHYKVYDLTKFLEEHPGGEEVLREQAGGDATENFEDVGHSTDARELSKTFIIGELHPDDRSKITKPSESIITTIDS”, the “soluble on expression in E. coli” value is recorded as “soluble”.
